Assay results reported in patent publication US20090305962A1 (Amgen, published 2009).

Experiments:
human IL-6 [1] = biological target: T1, human IL-6 (human, UniProt P05231 30-212); assay: panning and screening on IL-6
T1 construct: the protein used was bought recombinant human IL-6 (R&D Systems), in part biotinylated; also called rhIL-6; hIL-6

human IL-6 [2] = biological target: T1, human IL-6; assay: ELISA on IL-6 (also TF1 cell assay)

B1: SEQ ID NO 714 (designed binder)
chain: CPPSQFTCSNGNCLSPTLLCDGVNDCVDDSDETSCAASVHTCLPSQFQCGSGYCISQRWVCDGENDCEDSSDEANCAGSVPT
binding result (human IL-6 [1]): binds

CPPDEFQCNSGSCLSQPLLCDGEDDCGDGSDEESCIAAEHT (designed binder) [SEQ ID NO 575]
binding result (human IL-6 [1]): binds

B2: SEQ ID NO 677 (designed binder)
chain: CRADQCQCNSGHCLSRNLRCDGEDDCADNSDEKSCSQDPEFHKVCLPDQFQCGSGYCLPQRWVCDGVDDCEDSSDEKGCTPHT
binding result (human IL-6 [1]): binds

B3: SEQ ID NO 716 (designed binder)
chain: CPPGEFPCSSGHCLSQALRCDGVPDCEDDSDETGCPPPTCLPSQFQCGSGYCISQRWVCDGENDCEDSSDEANCAGSVPT
binding result (human IL-6 [1]): binds

B4: SEQ ID NO 672 (designed binder)
chain: CQPGQFQCHDYGRCVSQNWLCDGDPDCLDSSDEANCQPPTCVPSQFQCGSGYCISQRWVCDGENDCEDSSDEANCAGSVPT
binding result (human IL-6 [1]): binds

B5: SEQ ID NO 768 (designed binder)
chain: CASNEFPCSNGNCIPGPLRCDGVNDCEDNSDESPLWPLHTCLPSQFQCGSGYCISQRWVCDGENDCEDSSDEANCAGSVPT
binding result (human IL-6 [1]): binds

B6: SEQ ID NO 725 (designed binder)
chain: CLANEFRCSSGQCIPARWLCDGVNDCVDDSDEKDCPARTCLPSQFQCGSGYCISQRWVCDGENDCEDSSDEANCAGSVPT
binding result (human IL-6 [1]): binds

B7: SEQ ID NO 751 (designed binder)
chain: CLPSQFQCGSGYCISQRWVCDGENDCEDSSDEANCAGSVPTCLPSEFQCGNGRCLPLRLLCDGDDDCGDNSDEPLATCETSAPT
binding result (human IL-6 [1]): binds

B8: SEQ ID NO 689 (designed binder)
chain: CRASQFQCGSGYCIPRPWLCDGVNDCEDSSDEANCAGSVPTCQPSQFRCRSGHCISGALGCDGEPDCGDGSDETGCRASAHT
binding result (human IL-6 [1]): binds

B9: SEQ ID NO 720 (designed binder)
chain: CLASQFRCGNGSCLSQTLLCDGVNDCADNSDEVSCPPPTCLPSQFQCGSGYCISQRWVCDGENDCEDSSDEANCAGSVPT
binding result (human IL-6 [1]): binds

B10: SEQ ID NO 700 (designed binder)
chain: CRSNQFQCGSGYCIPVKWLCDGENDCEDSSDEESCPARTCPPSEFRCKGSGKCVPQHWLCDGVNDCEDDSDEKSCPPPT
binding result (human IL-6 [1]): binds

B11: SEQ ID NO 754 (designed binder)
chain: CPPSQFPCNSGNCVSAAWVCDGVDDCGDDSDESLAICPTSTCLPDQFQCGSGYCLPQRWVCDGVDDCEDSSDEKGCTPHT
binding result (human IL-6 [1]): binds

B12: SEQ ID NO 764 (designed binder)
chain: CEAGEFRCRNGSCIPEAWGCDGVNDYLDNSDETNCPAHTCLSSEFQCGSGYCISQRWVCDGENDCEDSSDEANCAGSVPT
binding result (human IL-6 [1]): binds

B13: SEQ ID NO 758 (designed binder)
chain: CRPSQFQCQNSSRCIPLGWRCDGDNDCEDGSDEKDCTATARTCLPDQFQCGSGYCLPQAWVCDGENDCEDGSDETNCPART
binding result (human IL-6 [1]): binds

B14: SEQ ID NO 635 (designed binder)
chain: CAPSQFTCGNGNCVPRPWLCDGDNDCEDDSDETSCPPHTCLPDQFQCGSGYCLPQAWVCDGENDCEDGSDETNCPART
binding result (human IL-6 [1]): binds

B15: SEQ ID NO 743 (designed binder)
chain: CVPSQFQCRNNGICIPQNWHCDGVPDCEDSSDEESCGTTVHTCLPSQFQCGSGYCISQRWVCDGENDCEDSSDEANCAGSVPT
binding result (human IL-6 [1]): binds

B16: SEQ ID NO 715 (designed binder)
chain: CLADQFKCHNTNICIPGRLGCDGDPDCEDDSDEKGCPPHTCLPSQFQCGSGYCISQRWVCDGENDCEDSSDEANCAGSVPT
binding result (human IL-6 [1]): binds

B17: SEQ ID NO 680 (designed binder)
chain: CPADEFPCKNGKCLPLPWVCDGDNDCADNSDETDCTATAPTCRSNQFQCGSGYCISQRWVCDGENDCEDSSDEANCAGSVPT
binding result (human IL-6 [1]): binds

B18: SEQ ID NO 925 (designed binder)
chain: CLPDQFRCGNGQCMPLDWVCDGVNDCPDDSDEEGCPPRTCEPGQFQCGSGYCISQRWVCDGENDCEDGSDEATCAGSVPQCPSDEFRCRTGRCIPQAWRCDGVNDCVDNSDEECCKEHT
binding result (human IL-6 [2]): binds

B19: SEQ ID NO 671 (designed binder)
chain: CQSSEFTCSSGRCLSAGWLCDGVNDCRDDSDEESCTAPVPTCVPSQFQCGSGYCISQRWVCDGENDCEDSSDEANCAGSVPT
binding result (human IL-6 [1]): binds

B20: SEQ ID NO 670 (designed binder)
chain: CPSNQFQCRNNGTCIPLPWLCDGVDDCGDDSDETSCTEPTCVPSQFQCGSGYCISQRWVCDGENDCEDSSDEANCAGSVPT
binding result (human IL-6 [1]): binds

B21: SEQ ID NO 735 (designed binder)
chain: CAANEFRCRSTNTCIPQQWLCDGVNDCQDDSDEKSCRTPAPTCLPSQFQCGSGYCISQRWVCDGENDCEDSSDEANCAGSVPT
binding result (human IL-6 [1]): binds

B22: SEQ ID NO 726 (designed binder)
chain: CLPGQFRCHSTDTCLPESWVCDGVNDCADDSDEASCPPHTCLPSQFQCGSGYCISQRWVCDGENDCEDSSDEANCAGSVPT
binding result (human IL-6 [1]): binds

CLPSQFQCGSGYCISQRWVCDGEHDCEDSSDEANCAGSVPT (designed binder) [SEQ ID NO 538]
binding result (human IL-6 [1]): binds

CLPSQFQCGSGWCISQRWVCDGENDCEDSSDEANCAGSVPT (designed binder) [SEQ ID NO 544]
binding result (human IL-6 [1]): binds

B23: SEQ ID NO 645 (designed binder)
chain: CGANEFQCGSGYCLPVGWVCDGENDCEDNSDEKGCPPHTCLPNQFQCRNGRCIPLPWLCDGDNDCEDDSDATNCTPRT
binding result (human IL-6 [1]): binds

B24: SEQ ID NO 681 (designed binder)
chain: CGSDEFLCNNGKCIPPTWGCDGVNDCQDNSDEAPALCPPPTCRSNQFQCGSGYCIPQRWVCDGVDDCEDSSDEKGCTPHT
binding result (human IL-6 [1]): binds

B25: SEQ ID NO 784 (designed binder)
chain: CLSSQFQCDNGNCVPQQWVCDGDNDCLDDSDETSCSAPASEPPGSLCPASQFPCSSGHCVPLNWVCDGVNDCVDGSDEAGCPPRTCLPDQFQCGSGYCISQRWVCDGENDCEDSSDEANCAGSVPT
binding result (human IL-6 [1]): binds

B26: SEQ ID NO 712 (designed binder)
chain: CRSSQFRCSSGQCVSLGWVCDGVNDCPDSSDETGCPKRTCLPSQFQCGSGYCISQRWVCDGENDCEDSSDEANCAGSVPT
binding result (human IL-6 [1]): binds

B27: SEQ ID NO 730 (designed binder)
chain: CAPSQFRCESGQCLPANWRCDGENDCQDGSDESPAICEGTAPTCLPSQFQCGSGYCISQRWVCDGENDCEDSSDEANCAGSVPT
binding result (human IL-6 [1]): binds

B28: SEQ ID NO 749 (designed binder)
chain: CGASEFRCDSGHCISPDWRCDGDNDCVDGSDEKSCEQRTCLPSQFQCGSGYCFSQRWVCDGENDCEDGSDEANCAGSVPT
binding result (human IL-6 [1]): binds

B29: SEQ ID NO 675 (designed binder)
chain: CRSSEFRCDSGHCLPLPWVCDGDDDCEDGSDEAQDCEPRTCVPSQFQCGSGYCISQRWVCDGENDCEDSSDEANCAGSVPT
binding result (human IL-6 [1]): binds

CPSDEFTCDSGRCVSLNWLCDGVNDCGDNSDEAGCPTRT (designed binder) [SEQ ID NO 603]
binding result (human IL-6 [1]): binds

B30: SEQ ID NO 669 (designed binder)
chain: CEASQFPCRNSERCVPPHLLCDGVNDCADGSDEIGCPPHTCVPSQFQCGSGYCISQRWVCDGENDCEDSSDEANCAGSVPT
binding result (human IL-6 [1]): binds

B31: SEQ ID NO 787 (designed binder)
chain: CLPNEFTCDSGNCVPQALGCDGDNDCEDNSDESPALCAAPAHTCQANEFTCSSGNCLSPALLCDGVDDCGDNSDETYCASPAPTCLPSQFQCGSGYCISQRWVCDGENDCEDSSDEANCAGSVPT
binding result (human IL-6 [1]): binds

CLPSEFQCRDSKICLSADWLCDGVNDCVDGSDEAGCPPRT (designed binder) [SEQ ID NO 599]
binding result (human IL-6 [1]): binds

B32: SEQ ID NO 665 (designed binder)
chain: CRASQFQCGSGYCIPRPWLCDGVNDCEDGSDEADCQTRTCVPSQFQCGSGYCISQRWVCDGENDCEDSSDEANCAGSVPT
binding result (human IL-6 [1]): binds

B33: SEQ ID NO 785 (designed binder)
chain: CQASEFPCDSGQCIPQPLGCDGDNDCADNSDEESCQPRTCPASQFPCSSGHCVPLNWVCDGVNDCVDGSDEAGCPPRTCLPDQFQCGSGYCISQRWVCDGENDCEDSSDEANCAGSVPT
binding result (human IL-6 [1]): binds

CEANELRCSSGRCLSVHWLCDGVDDCEDSSDEAGCPPRT (designed binder) [SEQ ID NO 600]
binding result (human IL-6 [1]): binds

CQANEFTCSSGNCLSPALLCDGVDDCGDNSDETNCASPAPT (designed binder) [SEQ ID NO 511]
binding result (human IL-6 [1]): binds

B34: SEQ ID NO 629 (designed binder)
chain: CLSSQFQCSNGNCIPAAWLCDSDNDCGDDSDETSCPAPTCPSSQFQCSSGWCIPEDWRCDGVPDCGDGSDEASDHCGDSHILPFSTPGPST
binding result (human IL-6 [1]): binds

B35: SEQ ID NO 745 (designed binder)
chain: CPPGEFKCNSGNCVSPTWGCDGVDDCGDDSDEASAICEAPEHTCLPSQFQCGSGYCISQRWVCDGENDCEDSSDEANCAGSVPT
binding result (human IL-6 [1]): binds
